Substrate in data set [1]: OC[C@H]1OC(O)[C@H](O)[C@@H](O)[C@@H]1O
Description: zero-trans transport kinetics in proteoliposomes (KM). Format: biochemical, Homo sapiens.

Substrate in the data set “purified protein”: OC[C@H]1OC(O)[C@H](O)[C@@H](O)[C@@H]1O
The experiment in a line: purified protein.

B1: hGLUT4 (Homo sapiens) (protein)
chain: MPSGFQQIGSEDGEPPQQRVTGTLVLAVFSAVLGSLQFGYNIGVINAPQKVIEQSYNETWLGRQGPEGPSSIPPGTLTTLWALSVAIFSVGGMISSFLIGIISQWLGRKRAMLVNNVLAVLGGSLMGLANAAASYEMLILGRFLIGAYSGLTSGLVPMYVGEIAPTHLRGALGTLNQLAIVIGILIAQVLGLESLLGTASLWPLLLGLTVLPALLQLVLLPFCPESPRYLYIIQNLEGPARKSLKRLTGWADVSGVLAELKDEKRKLERERPLSLLQLLGSRTHRQPLIIAVVLQLSQQLSGINAVFYYSTSIFETAGVGQPAYATIGAGVVNTVFTLVSVLLVERAGRRTLHLLGLAGMCGCAILMTVALLLLERVPAMSYVSIVAIFGFVAFFEIGPGPIPWFIVAELFSQGPRPAAMAVAGFSNWTSNFIIGMGFQYVAEAMGPYVFLLFAVLLLGFFIFTFLRVPETRGRTFDQISAAFHRTPSLLEQEVKPSTELEYLGPDEND
For the protein B1, the Km in data set [1] amounted to 8200 µM.

B2: hGLUT3 (Homo sapiens) (protein)
chain: MGTQKVTPALIFAITVATIGSFQFGYNTGVINAPEKIIKEFINKTLTDKGNAPPSEVLLTSLWSLSVAIFSVGGMIGSFSVGLFVNRFGRRNSMLIVNLLAVTGGCFMGLCKVAKSVEMLILGRLVIGLFCGLCTGFVPMYIGEISPTALRGAFGTLNQLGIVVGILVAQIFGLEFILGSEELWPLLLGFTILPAILQSAALPFCPESPRFLLINRKEEENAKQILQRLWGTQDVSQDIQEMKDESARMSQEKQVTVLELFRVSSYRQPIIISIVLQLSQQLSGINAVFYYSTGIFKDAGVQEPIYATIGAGVVNTIFTVVSLFLVERAGRRTLHMIGLGGMAFCSTLMTVSLLLKDNYNGMSFVCIGAILVFVAFFEIGPGPIPWFIVAELFSQGPRPAAMAVAGCSNWTSNFLVGLLFPSAAHYLGAYVFIIFTGFLITFLAFTFFKVPETRGRTFEDITRAFEGQAHGADRSGKDGVMEMNSIEPAKETTTNV
For the protein B2, the Km in “purified protein” stood at 1400 µM.

B3: GLUT1 (Homo sapiens) (protein)
chain: MEPSSKKLTGRLMLAVGGAVLGSLQFGYNTGVINAPQKVIEEFYNQTWVHRYGESILPTTLTTLWSLSVAIFSVGGMIGSFSVGLFVNRFGRRNSMLMMNLLAFVSAVLMGFSKLGKSFEMLILGRFIIGVYCGLTTGFVPMYVGEVSPTALRGALGTLHQLGIVVGILIAQVFGLDSIMGNKDLWPLLLSIIFIPALLQCIVLPFCPESPRFLLINRNEENRAKSVLKKLRGTADVTHDLQEMKEESRQMMREKKVTILELFRSPAYRQPILIAVVLQLSQQLSGINAVFYYSTSIFEKAGVQQPVYATIGSGIVNTAFTVVSLFVVERAGRRTLHLIGLAGMAGCAILMTIALALLEQLPWMSYLSIVAIFGFVAFFEVGPGPIPWFIVAELFSQGPRPAAIAVAGFSNWTSNFIVGMCFQYVEQLCGPYVFIIFTVLLVLFFIFTYFKVPETKGRTFDEIASGFRQGGASQSDKTPEELFHPLGADSQV
For the protein B3, in “purified protein”, the Km was 2000 µM.
